{"source": "paper PMC3770571", "key": {"[1]": {"target": "endogenous LANA of KSHV infected PEL cells (KSHV (HHV8) (endogenous in BCBL1, JSC1, BC3)) (UniProt Q9QR71)", "sequence (Q9QR71 whole entry)": "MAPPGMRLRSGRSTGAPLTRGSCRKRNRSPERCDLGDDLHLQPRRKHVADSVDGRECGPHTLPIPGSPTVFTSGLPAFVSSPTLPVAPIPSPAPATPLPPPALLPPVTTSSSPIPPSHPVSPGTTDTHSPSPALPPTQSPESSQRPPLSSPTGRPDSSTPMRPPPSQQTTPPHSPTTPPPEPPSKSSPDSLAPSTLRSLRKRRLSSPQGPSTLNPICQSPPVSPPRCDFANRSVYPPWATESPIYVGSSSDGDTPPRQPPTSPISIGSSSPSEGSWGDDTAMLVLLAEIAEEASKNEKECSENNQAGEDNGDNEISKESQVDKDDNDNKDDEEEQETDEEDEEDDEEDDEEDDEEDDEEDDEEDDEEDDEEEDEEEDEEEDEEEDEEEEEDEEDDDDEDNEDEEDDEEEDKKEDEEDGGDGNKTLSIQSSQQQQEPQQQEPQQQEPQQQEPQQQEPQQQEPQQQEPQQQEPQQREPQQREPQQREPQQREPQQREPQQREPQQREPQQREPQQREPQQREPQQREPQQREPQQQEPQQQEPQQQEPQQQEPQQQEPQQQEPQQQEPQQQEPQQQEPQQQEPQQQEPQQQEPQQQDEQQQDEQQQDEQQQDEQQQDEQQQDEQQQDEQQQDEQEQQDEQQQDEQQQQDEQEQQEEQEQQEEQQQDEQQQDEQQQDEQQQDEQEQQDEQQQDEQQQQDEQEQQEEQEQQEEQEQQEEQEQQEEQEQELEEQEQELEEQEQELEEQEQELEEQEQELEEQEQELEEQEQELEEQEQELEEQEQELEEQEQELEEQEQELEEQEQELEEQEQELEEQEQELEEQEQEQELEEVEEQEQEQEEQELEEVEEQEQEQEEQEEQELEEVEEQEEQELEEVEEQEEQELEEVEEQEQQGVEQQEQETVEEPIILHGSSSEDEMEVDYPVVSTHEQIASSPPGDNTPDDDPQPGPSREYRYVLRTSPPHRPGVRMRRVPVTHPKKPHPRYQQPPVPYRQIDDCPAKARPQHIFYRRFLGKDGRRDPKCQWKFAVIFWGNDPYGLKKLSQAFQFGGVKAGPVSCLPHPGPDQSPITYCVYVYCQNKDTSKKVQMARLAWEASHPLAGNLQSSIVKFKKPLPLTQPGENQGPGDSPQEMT", "experiment": "co-IP; lysate of 30 million BCBL1 cells treated with 2 U micrococcal nuclease (mononucleosomes), anti-LANA IP"}, "[2]": {"target": "endogenous LANA of KSHV infected PEL cells (KSHV (HHV8) (endogenous in BCBL1, JSC1, BC3)) (UniProt Q9QR71)", "experiment": "co-IP"}}}
{"substance": "endogenous histone H1 of human cells (from UniProt P16403 1-213) (natural protein)", "values": [{"measurement": "relative density of the co-precipitated band (input set at 10%)", "setting": "[1]", "result": 10, "unit": "%"}, {"measurement": "relative density of the co-precipitated band (input set at 10%)", "setting": "[2]", "result": 30, "unit": "%"}]}
